Assay results as given in US20240228595A1.

Tests used:
[1] = target: SARS-COV-2 Delta RBD (Sino Biological Cat. No. 40592-V08H90) (SARS-CoV-2 Delta) (UniProt P0DTC2); assay: ELISA, SARS-CoV-2-Delta RBD coated, antibody titrated
[2] = target: SARS-COV-2 Omicron BA.2 spike on HIV-1 based pseudovirus (SARS-CoV-2 Omicron BA.2) (UniProt P0DTC2); assay: cell-based or functional assay
[3] = target: SARS-COV-2 Omicron BA.1 spike on HIV-1 based pseudovirus (Example 3) (SARS-CoV-2 Omicron BA.1) (UniProt P0DTC2); assay: cell-based or functional assay
[4] = target: SARS-COV-2 Omicron BA.2 RBD (AcroBiosystems Cat. No. SPD-C522g) (SARS-CoV-2 Omicron BA.2) (UniProt P0DTC2); assay: ELISA, SARS-CoV-2-Omicron BA.2 RBD coated, antibody titrated
[5] = target: SARS-COV-2 Omicron RBD recombinant protein (Sino Biological 40592-V08H121) (SARS-CoV-2 Omicron BA.1) (UniProt P0DTC2); assay: ELISA, SARS-CoV-2-Omicron BA.1 RBD coated, antibody titrated

Substance: S309 (Sotrovimab) (antibody)
- EC50 [1]: 2 ng/mL
- pseudovirus neutralization, IC50 [2]: 2750 ng/mL
- pseudovirus neutralization, fold drop of activity against Omicron BA.2 [2]: 30 fold
- pseudovirus neutralization, IC50 [3]: 446 ng/mL
- EC50 [4]: 4 ng/mL
- EC50 [5]: 6 ng/mL
